The RNAGym collection of RNA variant scans (doi:10.1093/nar/gkz1192)

B1: CPEB3 Ribozyme (parent)
chain: UAACAGGGGGCCACAGCAGAAGCGUUCACGUCGCAGCCCCUGUCAGAUUCUGGUGAAUCUGCGAAUUCUGCUGUAUAUCUC

Variants of: B1
Test: self-cleavage, relative activity (ratio to wild type); higher = more cleavage; in vitro, sequencing
Method in brief: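 Barcoded CPEB3 ribozyme mutants, produced by rounds of error-prone PCR, self-cleaved while being transcribed with T7 RNA polymerase for 5 hours at 37°C and during a subsequent 15 min DNase I step before EDTA was added. Sequencing of template-switched cDNA on Illumina gave cleaved and total reads, and DNA sequencing assigned barcodes to variants. Each variant's relative activity is its cleaved/total read fraction divided by the unmutated ribozyme's fraction, averaged across three batches. A variant needed a minimum of 5 reads.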

Variant | self-cleavage
G36C A56U | 0.13
G36C A56G | 0.21
G36A U72C | 0.25
G36A U72A | 0.26
G36A C59U | 0.31
G36C U60C | 0.13
G36C U60A | 0.08
C38A U49C | 0.16
C38A U49A | 0.27
C37U G73A | 1.43
A35U U76A | 0.65
A35U U76C | 0.52
C38A U54C | 0.29
C38A U54A | 0.56
C37U U72C | 0.79
C37U U72A | 0.27
C37A A64G | 0.25
C37U U80A | 0.99
C37U U80C | 0.74
G36A U80A | 0.13
G36A U80C | 0.34
G36A C39G | 0.16
C37A U78C | 0.35
C37A U78A | 0.2

Variant | self-cleavage
G36A U66C | 0.33
C38G C59U | 0.22
C38U G63A | 0.6
C38A U51C | 0.18
C38A U51A | 0.17
C37U A65G | 0.28
C37U A65U | 0.16
G36U U54C | 0.26
C37U A64U | 0.27
C37U A64G | 0.6
G36C U49A | 0.17
C38U A77G | 0.74
G36A G42U | 0.13
C37G A57G | 0.44
C37G C62G | 0.5
C37A A57G | 0.2
C37U G55U | 0.88
C37G C44A | 0.39
G36U U69A | 0.2
G36U U69C | 0.15
C38A G73U | 0.91
C38A G73C | 0.45
G36C A57U | 0.13
A35U U80C | 0.63

Variant | self-cleavage
A35U U80G | 0.65
A35U U80A | 0.58
G36U C71U | 0.1
G36U | 0.24
G36A | 0.29
G36C | 0.31
C38G U69A | 0.19
G36U G61U | 0.13
C38A G63U | 0.1
C38G U41C | 0.19
G36A C50A | 0.25
C37U G63A | 0.54
C37U G63U | 0.84
G36C U72G | 0.19
C37A U43A | 0.14
C37A U43C | 0.43
C37A U49A | 0.13
C37A U49C | 0.11
C37G U49C | 0.38
G36C U66C | 0.23
C37G U51G | 0.78
C37U U49A | 0.38
C37U U49C | 0.37
C38G A57G | 0.23

Variant | self-cleavage
C37G A47G | 0.58
G36A A45G | 0.21
G36A A45U | 0.27
C38U A57G | 0.39
C38U A57U | 0.39
G36C U67C | 0.18
G36C C62U | 0.15
C37G U78C | 0.68
G36C A64G | 0.16
C38U A64G | 0.37
C38U A64C | 0.82
C38U A64U | 0.37
C38G U43C | 0.34
C38G U43A | 0.14
G36A U49C | 0.21
C37G C59G | 0.13
C37A U60A | 0.14
C37A U60C | 0.09
C38G A64G | 0.2
G36C U74C | 0.2
C37G U69A | 0.19
C37G U69C | 0.23
C37U C79A | 1.11
C37U C79U | 1.03

Variant | self-cleavage
C37U U69A | 0.2
C37U U69C | 0.42
G36U U60C | 0.11
C37U G52A | 0.93
G36C A47C | 0.13
G36C A47G | 0.15
G36C U78C | 0.14
C37U U48C | 0.36
C38A U72A | 0.34
C38A U72G | 0.17
C38A U72C | 0.53
G36A A57G | 0.17
C37A A75G | 0.19
C37A U48A | 0.12
C37A U48C | 0.41
C38G U80C | 0.56
C38G U80A | 0.26
C38A U66C | 0.15
C38A U66A | 0.12
G36U A45G | 0.22
G36U A45U | 0.19
C37A U54G | 0.2
C38A U69A | 0.19
C38U A56G | 0.43

Variant | self-cleavage
G36A U78C | 0.23
G36U A57G | 0.48
C37A U69A | 0.12
G36U C59U | 0.16
G36A U60C | 0.13
G36A U60A | 0.18
G36A C44G | 0.14
C37G U74A | 1.13
C37G U74C | 0.9
G36U U41A | 0.29
G36U U41C | 0.3
G36A U54A | 0.31
G36A U54C | 0.25
C37G A77U | 0.61
C38A U67A | 0.17
G36U G63U | 0.12
G36U G63A | 0.12
C37U C50A | 0.47
A35U U72C | 0.54
A35U U72G | 0.54
C38A A47C | 0.5
C38A A47G | 0.2
G36U U80C | 0.46
G36U U80A | 0.29

Variant | self-cleavage
C37G U72A | 0.92
C37G U72C | 1.14
G36U A75G | 0.11
G36C U80C | 0.13
G36C U80A | 0.12
G36A U69C | 0.27
G36A U69A | 0.32
G36A U58A | 0.13
G36A U58C | 0.27
G36A U58G | 0.19
C37U A47G | 0.58
C37U A47U | 0.39
C37A U51C | 0.17
C37G C40A | 0.29
A35U U74A | 0.89
A35U U74C | 0.86
G36A U43C | 0.29
G36A A47U | 0.13
G36A A47G | 0.34
G36U U78A | 0.43
G36U U78C | 0.17
C38A A75U | 0.39
G36C U69C | 0.11
G36U A77U | 0.19

Variant | self-cleavage
G36U A77G | 0.12
C38A C40U | 0.22
C38A C40A | 0.05
G36A U41C | 0.56
G36A U41A | 0.18
G36U U67A | 0.64
C37A C38A | 0.27
C38G A75G | 0.27
C38U G53A | 0.89
G36U U74C | 0.31
G36U G73A | 0.37
C37U U76C | 0.57
C37U U76A | 0.55
C37G U67A | 0.48
C38U A65G | 0.32
G36A U51G | 0.19
G36A U51C | 0.2
G36A U51A | 0.4
C38U A45U | 0.35
C38U A45G | 0.58
C37U A56U | 0.47
C37U A56G | 0.45
G36A A64U | 0.14
G36A A64G | 0.15

Variant | self-cleavage
A35U U78A | 0.54
A35U U78C | 0.52
C37U C40A | 0.21
C37U C40G | 0.22
G36U U58C | 0.53
C38G U67C | 0.11
C37A U67A | 0.14
C37A U67G | 0.17
C37A U67C | 0.13
C38U A47G | 0.66
C37G A45G | 0.7
C37G A45U | 0.13
C38G A77U | 0.31
C37A U76C | 0.35
C38U C39U | 0.26
C37A U74C | 0.17
C38A A57G | 0.19
G36C U43C | 0.28
C37A G73C | 0.38
C37G G70C | 0.2
C38A U43A | 0.34
G36C U58C | 0.14
C38U G55U | 0.8
C38U G55A | 0.4

Variant | self-cleavage
G36C G55A | 0.12
C38A U48A | 0.36
G36C A45G | 0.17
G36C A45U | 0.14
C37U C71U | 0.38
C37U C71G | 0.21
G36U U76A | 0.2
G36U U76C | 0.2
G36A A56G | 0.19
C37G U48C | 0.45
C38A A45U | 0.33
G36C G61C | 0.14
G36C G61U | 0.12
C38A U41C | 0.43
C38A U41A | 0.19
G36C A77G | 0.29
G36A G61C | 0.16
G36C A65G | 0.13
G36A U76C | 0.28
G36A U76G | 0.4
C38A G42C | 0.28
G36U C37U | 0.1
C37U A77U | 0.91
C37U A77G | 0.78

Variant | self-cleavage
C37G A75U | 1.13
C37U U66A | 0.25
G36U A65U | 0.06
G36U A65G | 0.39
C38A U60C | 0.37
C38A U60A | 0.2
C38A A64U | 0.09
C38A A64C | 0.15
C37U U43C | 0.31
C37U U43G | 0.19
C37U C59A | 0.22
C37G U80A | 1.18
C37G U80G | 1.16
C37G U80C | 1
G36C C38A | 0.16
G36C C38U | 0.27
C37U U54C | 0.79
C37U U54A | 0.82
C37U U78C | 0.56
C37U U78G | 1
C37U A75G | 0.59
C37A C68U | 0.09
C37U U67C | 0.22
G36C U48C | 0.4

Variant | self-cleavage
C38A U58C | 0.24
C37G U43C | 0.29
C37U G70A | 0.32
C38U G46A | 0.24
C37A A45U | 0.23
C37A A45C | 0.1
C37A A45G | 0.26
G36U U51G | 0.15
C37U A57G | 0.58
C38G U49A | 0.26
G36U U72C | 0.13
C37A U41C | 0.25
C37A U41A | 0.19
C38A A56G | 0.26
C38A A56C | 0.1
C38A A56U | 0.27
G36A U48C | 0.19
G36A A77G | 0.17
G36A A77C | 0.48
C37U U60C | 0.35
C37U U60A | 0.24
C37G G42U | 0.29
C38A A65U | 0.28
G36A C71U | 0.15

Variant | self-cleavage
G36A A65G | 0.17
C37A C59U | 0.24
C37A G52U | 0.35
C37U U41C | 0.89
C37U U41A | 0.18
C37U C44U | 0.13
G36U G42A | 0.21
C38U | 0.9
C38A | 0.3
C38G | 0.26
C37A C39A | 0.29
C37A A65G | 0.16
C37A A65U | 0.36
C37G A64G | 0.54
C37G A64U | 0.22
C37A U72C | 0.33
G36A U67C | 0.13
C38A U74G | 0.27
C38A U80C | 0.41
C38A U80A | 0.11
C37U A45C | 0.29
C37U A45G | 0.5
C37U A45U | 0.4
C38A U78C | 0.33

Variant | self-cleavage
C37A | 0.28
C37U | 0.79
C37G | 0.8
G36A A75U | 0.36
G36A A75C | 0.28
C37U U74A | 1.17
C37U U74C | 1.12
G36U U48C | 0.17
G36C U51C | 0.39
G36C U51A | 0.16
G36A G55A | 0.09
C37G C68A | 0.18
G36A C62A | 0.41
C37U U51G | 0.61
C37U U51A | 0.58
C37U U51C | 0.67
C37U G61A | 0.21
C37A A77G | 0.18
C37A A77U | 0.28
C37A C71U | 0.2
G36U A47U | 0.08
G36U A47G | 0.11
